Positions count from the first letter of the chain named. Names and notes keep the numbering of the source.
B1: target 1 insU 3' of 14,insG 3' of 9 (mixed)
RNA 1: CACCCGUGCAAAAAUGCAGGGGUCUAAAACUGAGCGGAUAACCUCUCUAUGG
RNA 2: GGGAAUGGAUCCACAUCUACGAAUUCGUACCAUAGAGAUGGUUAGUCCGCUCACCGAGAUCGGAAGAGCACACGU
B2: target 1 A9C,A20U (mixed)
RNA 1: B1 RNA 1
RNA 2: GGGAAUGGAUCCACAUCUACGAAUUCGUACCUUAGAGAGGUUCUCCGCUCACCGAGAUCGGAAGAGCACACGU
B3: target 1 U8C,U10G (mixed)
RNA 1: B1 RNA 1
RNA 2: B2 RNA 2 with U32A, U42G, C43A, U44C
B4: target 1 G5C,G17U (mixed)
RNA 1: B1 RNA 1
RNA 2: B2 RNA 2 with U32A, G35U, C43A, G47C
B5: target 1 C7A,A18U (mixed)
RNA 1: B1 RNA 1
RNA 2: B2 RNA 2 with U32A, A34U, C43A, C45A
B6: target 1 A16G,A18U (mixed)
RNA 1: B1 RNA 1
RNA 2: B2 RNA 2 with U32A, A34U, A36G, C43A
B7: target 1 U11G,G15A (mixed)
RNA 1: B1 RNA 1
RNA 2: B2 RNA 2 with U32A, G37A, U41G, C43A
B8: target 1 insA 3' of 19,insA 3' of 6 (mixed)
RNA 1: B1 RNA 1
RNA 2: B1 RNA 2 with G35A, A36G, G37A, A38G, U39A, G45U, U46C, C48A
B9: target 1 insU 3' of 4,insU 3' of 4 (mixed)
RNA 1: B1 RNA 1
RNA 2: B1 RNA 2 with U39G, G41U, U43A, A44U, G45C, U46C, C47G, G49U, C50U
B10: target 1 insU 3' of 17,insU 3' of 2 (mixed)
RNA 1: B1 RNA 1
RNA 2: GGGAAUGGAUCCACAUCUACGAAUUCGUACCAUAGUAGAGGUUAUCCGCUCUACCGAGAUCGGAAGAGCACACGU
B11: target 1 U3C,U11C (mixed)
RNA 1: B1 RNA 1
RNA 2: B2 RNA 2 with U32A, U41C, C43A, U49C
B12: target 1 insG 3' of 11,insU 3' of 6 (mixed)
RNA 1: B1 RNA 1
RNA 2: B1 RNA 2 with U39G, G41U, U42G, G45U, U46C, C48U
B13: target 1 C2A,A20U (mixed)
RNA 1: B1 RNA 1
RNA 2: B2 RNA 2 with C43A, C50A
B14: target 1 insU 3' of 21,insG 3' of 20 (mixed)
RNA 1: B1 RNA 1
RNA 2: B1 RNA 2 with A32U, U33A, A34G, G35U, U39G, G40A, U42G, A44U, G45A
B15: target 1 C4G,U19A (mixed)
RNA 1: B1 RNA 1
RNA 2: B2 RNA 2 with U32A, U33A, C43A, C48G
B16: target 1 insA 3' of 8,insC 3' of 5 (mixed)
RNA 1: B1 RNA 1
RNA 2: B1 RNA 2 with U39G, G41U, U43A, A44U, G45A, U46C, C48G, G49C
B17: target 1 A9G,U10A (mixed)
RNA 1: B1 RNA 1
RNA 2: B2 RNA 2 with U32A, U42A, C43G
B18: target 1 insU 3' of 21,insA 3' of 12 (mixed)
RNA 1: B1 RNA 1
RNA 2: GGGAAUGGAUCCACAUCUACGAAUUCGUACCUAUAGAGAGGAUUAUCCGCUCACCGAGAUCGGAAGAGCACACGU
B19: target 1 insG 3' of 11,insA 3' of 5 (mixed)
RNA 1: B1 RNA 1
RNA 2: B1 RNA 2 with U39G, G41U, U42G, G45U, U46C, C48G, G49A
B20: target 1 complement block 4-14 (mixed)
RNA 1: B1 RNA 1
RNA 2: GGGAAUGGAUCCACAUCUACGAAUUCGUACCAUAGAGUCCAAUAGGCGUCACCGAGAUCGGAAGAGCACACGU
B21: target 1 G12U,G13C (mixed)
RNA 1: B1 RNA 1
RNA 2: B2 RNA 2 with U32A, G39C, G40U, C43A
B22: target 1 insA 3' of 10,insA 3' of 10 (mixed)
RNA 1: B1 RNA 1
RNA 2: B1 RNA 2 with U39G, G41U, U43A, G45A
B23: target 1 insU 3' of 14,insC 3' of 9 (mixed)
RNA 1: B1 RNA 1
RNA 2: B1 RNA 2 with G45C
B24: target 1 insC 3' of 18,insG 3' of 6 (mixed)
RNA 1: B1 RNA 1
RNA 2: B10 RNA 2 with G35C, U36G, C49G, U50C, C51U, U52C
B25: target 1 insU 3' of 22,insU 3' of 20 (mixed)
RNA 1: B1 RNA 1
RNA 2: B18 RNA 2 with C31U, U32C, A35U, G36A, A37G, G38A, A39G, G40A, A42G
B26: target 1 insG 3' of 9,insG 3' of 6 (mixed)
RNA 1: B1 RNA 1
RNA 2: B1 RNA 2 with U39G, G41U, U43A, A44G, G45U, U46C, C48G
B27: target 1 insG 3' of 3,insG 3' of 3 (mixed)
RNA 1: B1 RNA 1
RNA 2: GGGAAUGGAUCCACAUCUACGAAUUCGUACCAUAGAGAGGUUAUCCGCUGGCACCGAGAUCGGAAGAGCACACGU
B28: target 1 del3,del13 (mixed)
RNA 1: B1 RNA 1
RNA 2: GGGAAUGGAUCCACAUCUACGAAUUCGUACCAUAGAGAGUUAUCCGCCACCGAGAUCGGAAGAGCACACGU

Target: T1, EsCas13d, nuclease-dead (Eubacterium siraeum, UniProt B0MS50, R295A;H300A;R849A;H854A)
T1 sequence: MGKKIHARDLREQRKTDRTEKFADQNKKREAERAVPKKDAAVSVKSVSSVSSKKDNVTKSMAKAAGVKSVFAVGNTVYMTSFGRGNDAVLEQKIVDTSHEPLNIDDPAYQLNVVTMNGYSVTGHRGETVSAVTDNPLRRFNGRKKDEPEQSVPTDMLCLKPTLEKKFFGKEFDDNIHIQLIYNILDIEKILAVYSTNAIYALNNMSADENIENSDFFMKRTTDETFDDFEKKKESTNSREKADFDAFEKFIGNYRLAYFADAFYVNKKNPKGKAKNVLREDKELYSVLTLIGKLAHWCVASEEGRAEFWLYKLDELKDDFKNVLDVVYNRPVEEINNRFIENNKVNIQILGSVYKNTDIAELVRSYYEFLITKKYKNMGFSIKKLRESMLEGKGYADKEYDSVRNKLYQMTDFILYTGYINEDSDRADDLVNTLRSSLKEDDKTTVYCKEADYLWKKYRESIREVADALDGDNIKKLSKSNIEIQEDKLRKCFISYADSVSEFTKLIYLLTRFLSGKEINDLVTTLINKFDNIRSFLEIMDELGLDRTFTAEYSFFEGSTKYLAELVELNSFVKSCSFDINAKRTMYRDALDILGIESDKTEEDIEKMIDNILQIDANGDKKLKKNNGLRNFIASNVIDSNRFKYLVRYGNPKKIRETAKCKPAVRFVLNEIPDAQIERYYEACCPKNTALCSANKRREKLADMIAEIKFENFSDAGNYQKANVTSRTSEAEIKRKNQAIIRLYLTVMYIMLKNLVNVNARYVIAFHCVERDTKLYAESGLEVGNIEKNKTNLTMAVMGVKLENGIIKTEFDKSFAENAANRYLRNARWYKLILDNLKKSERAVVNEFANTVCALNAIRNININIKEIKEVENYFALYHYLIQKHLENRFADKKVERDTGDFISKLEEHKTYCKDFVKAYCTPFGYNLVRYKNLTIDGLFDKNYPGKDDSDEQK
Assay: crRNA (strand 1, pre-loaded); Mg2+; 40 mM Tris-HCl pH 7.5, 150 mM NaCl, 6 mM MgCl2, 1 mM DTT, 0.1% Tween-20, 0.2 mg/ml BSA; 25 C; 10 min per concentration, then washed
Conditions: tags: His6-TwinStrep-SUMO cleaved; N-terminal SNAP kept (SNAP-Surface 488); label: 3' end held by stalled T7 RNA polymerase

| Binder | Kd |
| --- | --- |
| B1 | 28.2 ± 2.9 nM |
| B2 | 80 ± 40 nM |
| B3 | 13.5 ± 0.9 nM |
| B4 | 28.1 ± 2 nM |
| B5 | 36.4 ± 2.8 nM |
| B6 | 86 ± 13 nM |
| B7 | 59 ± 7 nM |
| B8 | 23.2 ± 0.9 nM |
| B9 | 9.4 ± 0.5 nM |
| B10 | 15.1 ± 2.2 nM |
| B11 | 51 ± 8 nM |
| B12 | 62 ± 8 nM |
| B13 | 30.1 ± 1.5 nM |
| B14 | 40 ± 11 nM |
| B15 | 51 ± 18 nM |
| B16 | 9.4 ± 0.6 nM |
| B17 | 15.5 ± 0.6 nM |
| B18 | 63 ± 9 nM |
| B19 | 26.5 ± 2.9 nM |
| B20 | 63 ± 31 nM |
| B21 | 17.5 ± 1.3 nM |
| B22 | 7.81 ± 0.3 nM |
| B23 | 46 ± 4 nM |
| B24 | 58 ± 10 nM |
| B25 | 63 ± 6 nM |
| B26 | 11.2 ± 1.2 nM |
| B27 | 5.5 ± 0.5 nM |
| B28 | 7.9 ± 0.4 nM |
